These results are taken from patent US20260007698A1 (published 2026).

In assay [1] the target is T1, VCY (Variable charge Y-linked) CT antigen; peptide VCY-23 peptide on HLA-A*11:01 (human).
T1 peptide: SSQPSPSGPK
Briefly: multimer staining.

Assay [2] addresses T2, VCX; peptide VCX-23 peptide on HLA-A*11:01 (human).
T2 peptide: SSQPSPSDPK
Briefly: killing.

B1: VCY-23 specific TCR (TCR, V domains shown)
Valpha: RKEVEQDPGPFNVPEGATVAFNCTYSNSASQSFFWYRQDCRKEPKLLMSVYSSGNEDGRFTAQLNRASQYISLLIRDSKLSDSATYLCVVTFDNYGQNFVFGPGTRLSVLP
Vbeta: NAGVTQTPKFRVLKTGQSMTLLCAQDMNHEYMYWYRQDPGMGLRLIHYSVGEGTTAKGEVPDGYNVSRLKKQNFLLGLESAAPSQTSVYFCASSYTYNYNEQFFGPGTRLTVL
B1: the binding result is reported as “recognises” in assay [1] and “no recognition” in assay [2].
